This is an account of results in patent publication US20160002357A1 (Pfizer, published 2016).

Values joined by “and” are separate entries in the source; they are usually repeats but may differ in a detail not shown here. Equal entries are not always repeated.

The target in experiment [1] is T1, cynomolgus monkey P-cadherin ECD (cynomolgus monkey).
T1 construct: extracellular domain; also called cyno P-cadherin ECD; Cyno P-cadherin
The experiment can be described thus: SPR Biacore pH 7.4. In general terms: SPR reads the build-up and loss of mass on a sensor chip optically.

Experiment [2] concerns the target T1, cynomolgus monkey P-cadherin ECD. The experiment can be described thus: SPR Biacore. As to the method:
Binding affinity of EK-DART proteins to P-cadherin and CD3 was analyzed by SPR using a BIACORE® 3000 biosensor (GE Healthcare). The antigens huCD3εδ and either human P-cadherin-Fc or human/cynomolgus monkey/murine P-cadherin-ECD were immobilized on the CM-5 sensor chip by amine coupling kit as recommended by the manufacturer. […] All EK-DART proteins in Tables 15 and 16 comprise CD3-2.
All EK-DART proteins in Table 17 comprise CD3-2.

Experiment [3] shares this target. The experiment can be described thus: SPR Biacore pH 7.4, average.
Experiment [4] deals with T2, human P-cadherin expressed on the cell surface (human, UniProt P22223 108-829). The experiment can be described thus: cell-based or functional assay.
The target in experiment [5] is T2, human P-cadherin expressed on the cell …. The experiment can be described thus: cell-based or functional assay. The source holds these as a separate data set.
In experiment [6] the target is T1, cynomolgus monkey P-cadherin ECD. The experiment can be described thus: SPR.

T2 sequence (P22223 108-829): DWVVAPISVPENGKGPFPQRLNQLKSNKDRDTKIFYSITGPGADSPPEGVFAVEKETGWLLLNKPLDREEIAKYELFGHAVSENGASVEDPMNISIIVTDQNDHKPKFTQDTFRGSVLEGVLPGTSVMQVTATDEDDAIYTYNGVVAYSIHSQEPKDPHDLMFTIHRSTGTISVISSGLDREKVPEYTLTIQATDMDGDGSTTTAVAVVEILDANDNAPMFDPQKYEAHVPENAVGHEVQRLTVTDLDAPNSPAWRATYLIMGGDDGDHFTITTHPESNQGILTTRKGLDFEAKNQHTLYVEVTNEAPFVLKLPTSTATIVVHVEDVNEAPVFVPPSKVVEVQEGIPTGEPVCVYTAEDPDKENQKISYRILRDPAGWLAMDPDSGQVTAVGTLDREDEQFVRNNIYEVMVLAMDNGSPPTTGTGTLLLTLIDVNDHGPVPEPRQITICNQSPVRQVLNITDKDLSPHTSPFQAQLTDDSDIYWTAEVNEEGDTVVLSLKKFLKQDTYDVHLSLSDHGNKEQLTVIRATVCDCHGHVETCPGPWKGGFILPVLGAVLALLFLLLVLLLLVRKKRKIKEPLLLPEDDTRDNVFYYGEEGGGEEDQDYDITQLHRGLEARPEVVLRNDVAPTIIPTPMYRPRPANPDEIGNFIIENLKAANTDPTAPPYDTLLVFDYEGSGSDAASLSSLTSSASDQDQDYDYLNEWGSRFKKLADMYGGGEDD

B1: 153 EK-DART (bispecific antibody)
chain 1: QSVLTQPPSVSAAPGQKVTISCSGSSSNIGNNYVSWYQQLPGTAPKLLIYDNNKRPSGIPDRFSGSKSGTSATLGITGLQTGDEADYYCGTWDSSLSGVVFGGGTKLTVLGGGSGGGGEVQLVESGGGLVQPGGSLRLSCAASGFTFNTYAMNWVRQAPGKGLEWVARIRSKYNNYATYYADSVKDRFTISRDDSKNSLYLQMNSLKTEDTAVYYCVRHGNFGNSYVSWFAYWGQGTLVTVSSGGCGGGKVAALKEKVAALKEKVAALKEKVAALKE
chain 2: QAVVTQEPSLTVSPGGTVTLTCRSSTGAVTTSNYANWVQQKPGQAPRGLIGGTNKRAPWTPARFSGSLLGGKAALTITGAQAEDEADYYCALWYSNLWVFGGGTKLTVLGGGGSGGGGEVQLVQSGAEVKKPGASVKVSCKASGYTFTSYGISWVRQAPGQGLEWMGWISAYNGNTNYAQKLQGRVTMTTDTSTSTAYMELRSLRSDDTAVYYCATIDTANAFGIWGQGTMVTVSSGGCGGGEVAALEKEVAALEKEVAALEKEVAALEK
In general, Kd refers to the concentration at which binding is half-saturated. Usually koff stands for a measure of how fast the partners let go of each other. By kon is commonly meant a measure of how fast the partners come together. In general, t½ refers to the time in which the quantity being followed falls by half. On to B1, for which, in experiment [1], the Kd is 0.403 nM and 0.43 nM; the off-rate constant (koff) is 0.000211 s⁻¹ and 0.000222 s⁻¹; the kon was 524000 M⁻¹ s⁻¹ and 517000 M⁻¹ s⁻¹; the t½ is 51.6 min and 49 min. Besides, in experiment [2], the affinity, expressed as Kd, was 0.232 nM; the koff came to 0.000172 s⁻¹; the on-rate constant (kon) came to 732000 M⁻¹ s⁻¹. Also, the Kd in experiment [3] was 0.417 nM.

B2: 153 MP3 C-terminal DART (bispecific antibody)
chain 1: DKTHTCPPCPAPEAAGAPSVFLFPPKPKDTLMISRTPEVTCVVVDVSHEDPEVKFNWYVDGVEVHNAKTKPREEQYNSTYRVVSVLTVLHQDWLNGKEYKCKVSNKALPAPIEKTISKAKGQPREPQVYTLPPSREEMTKNQVSLWCLVKGFYPSDIAVEWESNGQPENNYKTTPPVLDSDGSFFLYSKLTVDKSRWQQGNVFSCSVMHEALHNHYTQKSLSLSPGKAPSSSPMEQSVLTQPPSVSAAPGQKVTISCSGSSSNIGNNYVSWYQQLPGTAPKLLIYDNNKRPSGIPDRFSGSKSGTSATLGITGLQTGDEADYYCGTWDSSLSGVVFGGGTKLTVLGGGGSGGGGEVQLVESGGGLVQPGGSLRLSCAASGFTFSTYAMNWVRQAPGKGLEWVGRIRSKYNNYATYYADSVKGRFTISRDDSKNSLYLQMNSLKTEDTAVYYCVRHGNFGNSYVSWFAYWGQGTLVTVSSGVEPKSC
chain 2: QAVVTQEPSLTVSPGGTVTLTCRSSTGAVTTSNYANWVQQKPGQAPRGLIGGTNKRAPWTPARFSGSLLGGKAALTITGAQAEDEADYYCALWYSNLWVFGGGTKLTVLGGGGSGGGGEVQLVQSGAEVKKPGASVKVSCKASGYTFTSYGISWVRQAPGQGLEWMGWISAYNGNTNYAQKLQGRVTMTTDTSTSTAYMELRSLRSDDTAVYYCATIDTANAFGIWGQGTMVTVSSGFNRGEC
chain 3: DKTHTCPPCPAPEAAGAPSVFLFPPKPKDTLMISRTPEVTCVVVDVSHEDPEVKFNWYVDGVEVHNAKTKPREEQYNSTYRVVSVLTVLHQDWLNGKEYKCKVSNKALPAPIEKTISKAKGQPREPQVYTLPPSREEMTKNQVSLSCAVKGFYPSDIAVEWESNGQPENNYKTTPPVLDSDGSFFLVSKLTVDKSRWQQGNVFSCSVMHEALHNRYTQKSLSLSPGK
notes: also called C-terminal MP3-DART P-CAD153 VH and VL
Take B2: in experiment [1], the Kd was 1.56 nM and 2.11 nM; the dissociation rate constant (koff) is 0.000106 s⁻¹ and 0.000179 s⁻¹; the kon is 68000 M⁻¹ s⁻¹ and 84600 M⁻¹ s⁻¹; the t½ is 102 min and 60.9 min. In addition, the affinity in experiment [3], expressed as Kd, was 1.84 nM.

B3: 153 MP3 N-terminal DART (bispecific antibody, human IgG1)
chain 1: QSVLTQPPSVSAAPGQKVTISCSGSSSNIGNNYVSWYQQLPGTAPKLLIYDNNKRPSGIPDRFSGSKSGTSATLGITGLQTGDEADYYCGTWDSSLSGVVFGGGTKLTVLGGGGSGGGGEVQLVESGGGLVQPGGSLRLSCAASGFTFSTYAMNWVRQAPGKGLEWVGRIRSKYNNYATYYADSVKGRFTISRDDSKNSLYLQMNSLKTEDTAVYYCVRHGNFGNSYVSWFAYWGQGTLVTVSSGVEPKSCDKTHTCPPCPAPEAAGAPSVFLFPPKPKDTLMISRTPEVTCVVVDVSHEDPEVKFNWYVDGVEVHNAKTKPREEQYNSTYRVVSVLTVLHQDWLNGKEYKCKVSNKALPAPIEKTISKAKGQPREPQVYTLPPSREEMTKNQVSLWCLVKGFYPSDIAVEWESNGQPENNYKTTPPVLDSDGSFFLYSKLTVDKSRWQQGNVFSCSVMHEALHNHYTQKSLSLSPGK
chain 2: QAVVTQEPSLTVSPGGTVTLTCRSSTGAVTTSNYANWVQQKPGQAPRGLIGGTNKRAPWTPARFSGSLLGGKAALTITGAQAEDEADYYCALWYSNLWVFGGGTKLTVLGGGGSGGGGEVQLVQSGAEVKKPGASVKVSCKASGYTFTSYGISWVRQAPGQGLEWMGWISAYNGNTNYAQKLQGRVTMTTDTSTSTAYMELRSLRSDDTAVYYCATIDTANAFGIWGQGTMVTVSSGFNRGEC
chain 3: DKTHTCPPCPAPEAAGAPSVFLFPPKPKDTLMISRTPEVTCVVVDVSHEDPEVKFNWYVDGVEVHNAKTKPREEQYNSTYRVVSVLTVLHQDWLNGKEYKCKVSNKALPAPIEKTISKAKGQPREPQVYTLPPSREEMTKNQVSLSCAVKGFYPSDIAVEWESNGQPENNYKTTPPVLDSDGSFFLVSKLTVDKSRWQQGNVFSCSVMHEALHNRYTQKSLSLSPGK
For the molecule B3, in experiment [1], the Kd is 2.43 nM and 2.78 nM; the off-rate (koff) is 0.000296 s⁻¹ and 0.000228 s⁻¹; the on-rate (kon) was 122000 M⁻¹ s⁻¹ and 81900 M⁻¹ s⁻¹; the t½ was 36.8 min and 47.8 min. For the same molecule, the Kd in experiment [3] stood at 2.61 nM.

B4: 35 LP-DART (bispecific antibody)
chain 1: QSVLTQPPSVSAAPGQKVTISCSGSSSNIGNNYVSWYQQLPGTAPKLLIYDNNKRPSGIPDRFSGSKSGTSATLGITGLQTGDEADYYCGTWDSSLSAVVFGGGTKLTVLGGGSGGGGEVQLVESGGGLVQPGGSLRLSCAASGFTFSTYAMNWVRQAPGKGLEWVGRIRSKYNNYATYYADSVKGRFTISRDDSKNSLYLQMNSLKTEDTAVYYCVRHGNFGNSYVSWFAYWGQGTLVTVSSGCPPCPAPEAAGAPSVFLFPPKPKDTLMISRTPEVTCVVVDVSHEDPEVKFNWYVDGVEVHNAKTKPREEQYNSTYRVVSVLTVLHQDWLNGKEYKCKVSNKALPAPIEKTISKAKGQPREPQVCTLPPSREEMTKNQVSLWCLVKGFYPSDIAVEWESNGQPENNYKTTPPVLDSDGSFFLYSKLTVDKSRWQQGNVFSCSVMHEALHNHYTQKSLSLSPG
chain 2: QAVVTQEPSLTVSPGGTVTLTCRSSTGAVTTSNYANWVQQKPGQAPRGLIGGTNKRAPWTPARFSGSLLGGKAALTITGAQAEDEADYYCALWYSNLWVFGGGTKLTVLGGGGSGGGGEVQLVQSGAEVKKPGASVKVSCKASGYTFTSYGISWVRQAPGQGLEWMGWISAYNGNTNYAQKLQGRVTMTTDTSTSTAYMELRSLRSDDTAVYYCATIDTASAFDIWGQGTMVTVSSGCPPCPAPEAAGAPSVFLFPPKPKDTLMISRTPEVTCVVVDVSHEDPEVKFNWYVDGVEVHNAKTKPREEQYNSTYRVVSVLTVLHQDWLNGKEYKCKVSNKALPAPIEKTISKAKGQPREPQVYTLPPCREEMTKNQVSLSCAVKGFYPSDIAVEWESNGQPENNYKTTPPVLDSDGSFFLVSKLTVDKSRWQQGNVFSCSVMHEALHNHYTQKSLSLSPG
Take B4: in experiment [4], the “DU145 CTL (LDH) EC50” value came out at 0.0073 nM and the “HCT116 CTL (Luc) EC50” value was found to be 0.107 nM.

B5: LP-DART #3 (bispecific antibody)
chain 1: QAVVTQEPSLTVSPGGTVTLTCRSSTGAVTTSNYANWVQQKPGQAPRGLIGGTNKRAPWTPARFSGSLLGGKAALTITGAQAEDEADYYCALWYSNLWVFGGGTKLTVLGGGGSGGGGEVQLVQSGAEVKKPGASVKVSCKASGYTFTSYGISWVRQAPGQGLEWMGWISAYNGNTNYAQKLQGRVTMTTDTSTSTAYMELRSLRSDDTAVYYCATIDTASAFDIWGQGTMVTVSSGEPKSSDKTHTCPPCPAPEAAGAPSVFLFPPKPKDTLMISRTPEVTCVVVDVSHEDPEVKFNWYVDGVEVHNAKTKPREEQYNSTYRVVSVLTVLHQDWLNGKEYKCKVSNKALPAPIEKTISKAKGQPREPQVCTLPPSREEMTKNQVSLWCLVKGFYPSDIAVEWESNGQPENNYKTTPPVLDSDGSFFLYSKLTVDKSRWQQGNVFSCSVMHEALHNHYTQKSLSLSPG
chain 2: QSVLTQPPSVSAAPGQKVTISCSGSSSNIGNNYVSWYQQLPGTAPKLLIYDNNKRPSGIPDRFSGSKSGTSATLGITGLQTGDEADYYCGTWDSSLSAVVFGGGTKLTVLGGGSGGGGEVQLVESGGGLVQPGGSLRLSCAASGFTFNTYAMNWVRQAPGKGLEWVARIRSKYNNYATYYADSVKDRFTISRDDSKNSLYLQMNSLKTEDTAVYYCVRHGNFGNSYVSWFAYWGQGTLVTVSSGEPKSSDKTHTCPPCPAPEAAGAPSVFLFPPKPKDTLMISRTPEVTCVVVDVSHEDPEVKFNWYVDGVEVHNAKTKPREEQYNSTYRVVSVLTVLHQDWLNGKEYKCKVSNKALPAPIEKTISKAKGQPREPQVYTLPPCREEMTKNQVSLSCAVKGFYPSDIAVEWESNGQPENNYKTTPPVLDSDGSFFLVSKLTVDKSRWQQGNVFSCSVMHEALHNHYTQKSLSLSPG
notes: also called P-cadherin LP-DART construct #3 (P-CAD 35, CD3-2)
Consider B5, for which, in experiment [5], the “T cell Cytotoxicity” value came out at 1.6 nM. Further, the Kd in experiment [6] worked out at 85.7 nM.

B6: LP-DART #2 (bispecific antibody)
chain 1: QAVVTQEPSLTVSPGGTVTLTCRSSTGAVTTSNYANWVQQKPGQAPRGLIGGTNKRAPWTPARFSGSLLGGKAALTITGAQAEDEADYYCALWYSNLWVFGGGTKLTVLGGGGSGGGGEVQLVQSGAEVKKPGASVKVSCKASGYTFTSYGISWVRQAPGQGLEWMGWISAYNGNTNYAQKLQGRVTMTTDTSTSTAYMELRSLRSDDTAVYYCATIDTASAFDIWGQGTMVTVSSGGTGGCPPCPAPEAAGAPSVFLFPPKPKDTLMISRTPEVTCVVVDVSHEDPEVKFNWYVDGVEVHNAKTKPREEQYNSTYRVVSVLTVLHQDWLNGKEYKCKVSNKALPAPIEKTISKAKGQPREPQVCTLPPSREEMTKNQVSLWCLVKGFYPSDIAVEWESNGQPENNYKTTPPVLDSDGSFFLYSKLTVDKSRWQQGNVFSCSVMHEALHNHYTQKSLSLSPG
chain 2: QSVLTQPPSVSAAPGQKVTISCSGSSSNIGNNYVSWYQQLPGTAPKLLIYDNNKRPSGIPDRFSGSKSGTSATLGITGLQTGDEADYYCGTWDSSLSAVVFGGGTKLTVLGGGSGGGGEVQLVESGGGLVQPGGSLRLSCAASGFTFNTYAMNWVRQAPGKGLEWVARIRSKYNNYATYYADSVKDRFTISRDDSKNSLYLQMNSLKTEDTAVYYCVRHGNFGNSYVSWFAYWGQGTLVTVSSGGTGGCPPCPAPEAAGAPSVFLFPPKPKDTLMISRTPEVTCVVVDVSHEDPEVKFNWYVDGVEVHNAKTKPREEQYNSTYRVVSVLTVLHQDWLNGKEYKCKVSNKALPAPIEKTISKAKGQPREPQVYTLPPCREEMTKNQVSLSCAVKGFYPSDIAVEWESNGQPENNYKTTPPVLDSDGSFFLVSKLTVDKSRWQQGNVFSCSVMHEALHNHYTQKSLSLSPG
notes: also called P-cadherin LP-DART construct #2 (P-CAD 35, CD3-2)
Regarding B6, in experiment [5], the “T cell Cytotoxicity” value was 0.92 nM. For the same molecule, binding in experiment [6] was characterised by a dissociation constant (Kd) of 73.5 nM.
